B1: OR4K15 (parent)
chain: GUUAACGGUCAUAGGCCAUGGAAACUAGGAGCACCAUUUCGCUGCCAGUGAAGAAAUGAACAAAGAAAAUCUGGGCCAGGCAGGCAUCAAAAGAAAUAGUCUUGCGCUCAACCAGAAAGUCUGUAAUCAUUUUAAGGGUA

Variants of: B1
Test: self-cleavage, relative activity (ratio to wild type); higher = more cleavage; in vitro, sequencing; the parent is a self-cleaving ribozyme

First: A52C A94G
Second: C88A
The self-cleavage of the first is higher: 2.5 for the first, 1.78 for the second.

Going from C46U U103C to U9C C105U, the self-cleavage falls from 1.41 to 0.14.

Going from A55G A116G to A24C A126G, the self-cleavage falls from 0.63 to 0.

Going from U12C U19A to A62G U100A, the self-cleavage rises from 1.05 to 1.12.

Compared with A62U G104A, A89G A140C is higher in self-cleavage: 0.04 for the first, 0.99 for the second.

Compared with C25U A86U, A51G A69G is higher in self-cleavage: 0.61 for the first, 1.24 for the second.

Going from A125G U131C to A52C U87C, the self-cleavage rises from 0.2 to 1.09.

First: C17U A114G
Second: U87C U108C
The self-cleavage of the first is higher: 0.54 for the first, 0.01 for the second.

Going from G8A U43A to A23U A59G, the self-cleavage rises from 2.05 to 2.4.

Compared with U49C G123U, U39A A125U is higher in self-cleavage: 0.88 for the first, 2.5 for the second.

Compared with A92U U102C, A4G A67G is lower in self-cleavage: 2.01 for the first, 1.16 for the second.

Compared with A22G A47U, U43G A116G is higher in self-cleavage: 0.62 for the first, 0.96 for the second.

Going from A63U U103C to A68G A96C, the self-cleavage falls from 1.58 to 1.42.

First: U70C U130C
Second: A24U A55U
The self-cleavage of the first is lower: 0.21 for the first, 0.93 for the second.

Going from A51G A52G to A68G A140G, the self-cleavage rises from 1.46 to 1.91.

Compared with A90U U100C, A23G A66U is lower in self-cleavage: 2.02 for the first, 1.43 for the second.

Compared with A52C, U39C U133C is higher in self-cleavage: 0.57 for the first, 2.27 for the second.

Compared with U102A U131C, A13G A111G is lower in self-cleavage: 0.62 for the first, 0.15 for the second.

First: A5C U87C
Second: U12G A27C
The self-cleavage of the first is lower: 0.73 for the first, 1 for the second.

Compared with A56C A117G, G29U C88U is higher in self-cleavage: 1.17 for the first, 2.55 for the second.

First: A18G U43A
Second: A55G A86U
The self-cleavage of the first is lower: 1.23 for the first, 1.26 for the second.

Going from G50U G79A to A24G G41A, the self-cleavage rises from 0.11 to 1.45.

Going from A69U U122A to U19C A30U, the self-cleavage falls from 2.21 to 1.02.

Compared with A60C A63G, A18U A59G is lower in self-cleavage: 2.15 for the first, 1.2 for the second.

Going from C77U A89U to U2C A89G, the self-cleavage falls from 2.73 to 0.63.

First: U9C G29A
Second: A18G U72A
The self-cleavage of the first is higher: 2.15 for the first, 0.37 for the second.

Compared with G80U, U57C A62U is higher in self-cleavage: 0.1 for the first, 2.11 for the second.

First: A18G A59G
Second: G106A G136U
The self-cleavage of the first is higher: 1.19 for the first, 0.04 for the second.

Compared with A24G U102C, C46U A111G is lower in self-cleavage: 1.48 for the first, 0.02 for the second.

Compared with U100C A140U, U38C A90U is lower in self-cleavage: 2.24 for the first, 2.23 for the second.

First: A94G C105U
Second: A11U A64G
The self-cleavage of the first is lower: 0.38 for the first, 1.56 for the second.

First: G14A A36U
Second: U57G A110G
The self-cleavage of the first is higher: 0.83 for the first, 0.17 for the second.

Going from U37A A59G to A47C G79A, the self-cleavage falls from 1.78 to 0.14.

Going from A22U A118G to A82U U87A, the self-cleavage falls from 1.13 to 0.02.

Going from A64G A68U to A24U C71A, the self-cleavage falls from 1.42 to 0.49.

Compared with A11U A78U, A68G G138A is higher in self-cleavage: 0.49 for the first, 1.67 for the second.

Going from C25A U122A to U38A A60G, the self-cleavage rises from 0.94 to 1.32.

First: C16U A94U
Second: A22G A30U
The self-cleavage of the first is lower: 1.89 for the first, 1.9 for the second.

Compared with A98G A114U, A116G A117C is higher in self-cleavage: 0.02 for the first, 0.1 for the second.

First: A4G A51G
Second: A96G A98U
The self-cleavage of the first is lower: 1.01 for the first, 2.3 for the second.

Going from C32U U120C to A56G A135G, the self-cleavage rises from 1.57 to 1.61.

Going from A56G G99C to A11U U37C, the self-cleavage rises from 0.2 to 1.01.

First: A47U A140G
Second: U108C U139C
The self-cleavage of the first is higher: 0.91 for the first, 0.01 for the second.

First: A54C A68G
Second: C113U A129G
The self-cleavage of the first is higher: 1.03 for the first, 0.01 for the second.

First: U19A C25U
Second: A22G A36G
The self-cleavage of the first is higher: 1.86 for the first, 1.4 for the second.

Going from A4G A117U to U57A A117G, the self-cleavage rises from 0.81 to 1.69.

Compared with C88U U120C, A91C is higher in self-cleavage: 1.46 for the first, 1.53 for the second.

First: A78G
Second: U57A A64G
The self-cleavage of the first is lower: 0.22 for the first, 1.32 for the second.

Going from C35A G99U to A5G A18U, the self-cleavage rises from 0.79 to 1.12.

First: U72C G84U
Second: U19G A78U
The self-cleavage of the first is lower: 0.35 for the first, 0.89 for the second.

Compared with U26C A117G, U26C A116U is lower in self-cleavage: 1.36 for the first, 0.18 for the second.

First: C17U U132C
Second: C45U A82G
The self-cleavage of the first is higher: 1.02 for the first, 0.27 for the second.

Compared with A64G A114U, U3C G75C is lower in self-cleavage: 0.1 for the first, 0.08 for the second.

Compared with U37C G73A, A64U A92C is higher in self-cleavage: 0.19 for the first, 1.53 for the second.

First: G58A A140G
Second: U49C U124A
The self-cleavage of the first is higher: 1.85 for the first, 0.48 for the second.

Going from C16U A30G to A23G A59U, the self-cleavage falls from 1.27 to 1.

Going from A22C U108A to U9C A63G, the self-cleavage rises from 0.02 to 1.64.

Going from A11U A135U to A117G U139A, the self-cleavage rises from 0.98 to 1.85.

Compared with G80A A95U, A94G U103C is higher in self-cleavage: 0.17 for the first, 0.69 for the second.

First: U9A U39C
Second: A66U A78U
The self-cleavage of the first is higher: 0.86 for the first, 0.32 for the second.

Going from A23G U38C to A11U G15A, the self-cleavage rises from 1.38 to 1.97.

First: G74A A116G
Second: A117U U124A
The self-cleavage of the first is lower: 0.12 for the first, 0.27 for the second.

Compared with A24G A66G, A78U A95G is higher in self-cleavage: 0.73 for the first, 0.84 for the second.

First: A4G C88U
Second: A22G A60U
The self-cleavage of the first is higher: 0.96 for the first, 0.77 for the second.

Going from A95G U139A to G53U A126G, the self-cleavage falls from 2.01 to 1.4.

Compared with U19A U72A, G123C is higher in self-cleavage: 0.21 for the first, 1.16 for the second.

First: A92U A126U
Second: G74A U100C
The self-cleavage of the first is higher: 1.02 for the first, 0.45 for the second.

Compared with A94G A96G, U43A C128A is lower in self-cleavage: 1.35 for the first, 0.8 for the second.

Going from A69C A126G to A5U C6U, the self-cleavage rises from 0.51 to 1.27.

First: G15A A126G
Second: A33U C128U
The self-cleavage of the first is higher: 1.51 for the first, 1.3 for the second.

Going from A22G A114C to A94G A126G, the self-cleavage rises from 0.03 to 1.3.

Going from U97C A110U to A4G U39A, the self-cleavage rises from 1.02 to 1.27.

First: A13G A23G
Second: A24G G93A
The self-cleavage of the first is higher: 1.3 for the first, 0.88 for the second.

Compared with U9G A118G, A78C is lower in self-cleavage: 0.91 for the first, 0.18 for the second.

Compared with U57C A110G, A23G C71U is higher in self-cleavage: 0.1 for the first, 0.31 for the second.

Compared with U131C U139A, C6A U49G is lower in self-cleavage: 1.84 for the first, 0.61 for the second.

First: C81U A82G
Second: A18U U122C
The self-cleavage of the first is lower: 0.14 for the first, 0.87 for the second.

Compared with A11C A24G, U12C A18U is lower in self-cleavage: 1.94 for the first, 1.3 for the second.

First: C46U A52G
Second: U26C A64G
The self-cleavage of the first is higher: 1.09 for the first, 0.74 for the second.

Compared with A95U U122C, A36U U102C is higher in self-cleavage: 1.44 for the first, 2.06 for the second.

Going from U39C A135C to U3C G48A, the self-cleavage falls from 1.38 to 0.97.

First: A64U U127C
Second: A24G A91U
The self-cleavage of the first is higher: 1.66 for the first, 1.61 for the second.

Going from A62G U102A to A54G C88U, the self-cleavage rises from 1.14 to 1.51.

In the case of A24C U102C, the self-cleavage is reported as 1.22.
